Article PMC5158307, “Substrate specificity characterization for eight putative nudix hydrolases. Evaluation of criteria for substrate identification within the Nudix family” (Proteins, 2016)

How the values were obtained:
Assay in all cases: purified protein
Settings in all cases: pH 7.6, 37 °C, 1 mM MgCl2, 10 mM Tris-HCl
[1] = substrate: Cc1cn([C@@H]2O[C@H](COP(=O)(O)OP(=O)(O)OP(=O)(O)O)[C@@H](O)[C@H]2O)c(=O)nc1N
Excerpt: (§1) Pi-sensor (MDCC-PBP) fluorescence, PPase coupled on Q5LBB1_BACFN

[2] = substrate: Nc1nc(=O)n([C@H]2C[C@H](O)[C@@H](COP(=O)(O)OP(=O)(O)OP(=O)(O)O)O2)cc1O
Excerpt: as §1

[3] = substrate: Cc1cn([C@H]2C[C@H](O)[C@@H](COP(=O)(O)OP(=O)(O)OP(=O)(O)O)O2)c(=O)nc1N
Excerpt: as §1

[4] = substrate: Nc1nc(=O)n([C@H]2C[C@H](O)[C@@H](COP(=O)(O)OP(=O)(O)OP(=O)(O)O)O2)cc1CO
Excerpt: as §1

B1: Q5LBB1_BACFN (Bacteroides fragilis NCTC 9343) (protein)
chain: MKSIEVVAAVIRLGEKYLCVQRGQTKFSYTSFRYEFPGGKVEEGESLQEALQREIMEEMDYVIEVGEKLLTVHHTYPDFEITMHAFLCHPVGQRYVLKEHIAAQWLSTREMAILDWAEADKPIVRKISEQ
[1]
  Km: 2.5 ± 1.2 µM
  kcat: 16 ± 3 s⁻¹
  kcat/Km: 6.7e+06 ± 2.4e+06 M⁻¹ s⁻¹
[2]
  Km: 9.2 ± 2.8 µM
  kcat: 0.78 ± 0.11 s⁻¹
  kcat/Km: 85000 ± 14000 M⁻¹ s⁻¹
[3]
  Km: 3.0 ± 0.8 µM
  kcat: 14 ± 1 s⁻¹
  kcat/Km: 4.8e+06 ± 1e+06 M⁻¹ s⁻¹
[4]
  Km: 10 ± 5 µM
  kcat: 45 ± 11 s⁻¹
  kcat/Km: 4.4e+06 ± 1e+06 M⁻¹ s⁻¹
